Experimental data published in patent US8883153B2, “Methods for preventing and treating angioedema” (The Research for The State University of New York, priority 2009, dated 2014).

Assays:
HK = target: T1, HK (Homo sapiens, UniProt P01042); experiment: solid phase ELISA, gC1q-R peptides supporting HK binding
T1 sequence (P01042 19-644): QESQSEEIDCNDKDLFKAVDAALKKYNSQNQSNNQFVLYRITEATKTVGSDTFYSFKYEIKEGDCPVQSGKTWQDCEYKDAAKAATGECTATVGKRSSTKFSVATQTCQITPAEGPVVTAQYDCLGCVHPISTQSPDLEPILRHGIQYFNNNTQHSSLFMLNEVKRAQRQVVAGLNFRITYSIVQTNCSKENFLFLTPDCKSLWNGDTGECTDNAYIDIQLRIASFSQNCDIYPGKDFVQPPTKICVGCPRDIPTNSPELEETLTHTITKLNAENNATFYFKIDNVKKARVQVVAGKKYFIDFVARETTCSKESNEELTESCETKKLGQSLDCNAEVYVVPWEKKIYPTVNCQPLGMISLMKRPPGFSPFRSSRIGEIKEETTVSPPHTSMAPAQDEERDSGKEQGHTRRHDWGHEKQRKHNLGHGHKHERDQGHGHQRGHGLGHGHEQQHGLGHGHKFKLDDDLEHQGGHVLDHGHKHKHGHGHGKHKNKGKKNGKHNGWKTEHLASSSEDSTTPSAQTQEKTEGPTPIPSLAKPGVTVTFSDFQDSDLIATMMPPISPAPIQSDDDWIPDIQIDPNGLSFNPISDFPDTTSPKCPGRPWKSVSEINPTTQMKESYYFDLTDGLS
From the text: By peptide mapping and antibody inhibition studies, we have previously identified a binding site for HK in a gC1q-R domain contained within residues 204-218. […] Thus a possible binding site(s) elsewhere in the molecule was sought. Several peptides were synthesized that correspond with the gC1q-R domains of very high negative charge and, which based on their location in the crystal structure on the solution-face, are hypothesized to interact with solution-phase ligands. […] HK was bound to wells coated with peptide 190-202 and was detected by a monoclonal antibody to HK. […] These antibodies have now been isotyped to be IgG1k.

recombinant gC1q-R = target: T2, recombinant gC1q-R (Homo sapiens, UniProt Q07021); experiment: competitive binding ELISA, biotinylated gC1q-R to coated HK peptide
T2 construct: made in house
T2 sequence (Q07021 74-282): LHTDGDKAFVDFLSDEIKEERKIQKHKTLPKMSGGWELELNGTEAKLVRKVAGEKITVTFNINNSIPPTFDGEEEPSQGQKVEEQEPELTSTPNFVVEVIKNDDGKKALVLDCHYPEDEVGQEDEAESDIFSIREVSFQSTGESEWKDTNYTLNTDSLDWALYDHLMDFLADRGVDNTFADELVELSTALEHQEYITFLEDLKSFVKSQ
Protocol: FIG. 5. Panel A: Solution phase HKH20 inhibits binding of gC1q-R to microtiter bound HKH. ELISA wells were first coated with 50 μg/ml peptide HKH20 (SEQ ID NO:11). The wells were then incubated either with biotinylated gC1q-R (5 μg/ml) alone (lane 2) or in the presence of 10 μg/ml (lane 3) or 50 μg/ml (lane 4) HKH20. […] was coated with biotinylated gC1q-R (1 μg/ml) and detected with alkaline-phosphatase conjugated NeutrAvidin. The figure is a representative of two experiments done in duplicate. […] Panel B: HKH20 and histidine-rich fragments bind to gC1q-R. Binding of gC1q-R to HKH-20 (SEQ ID NO:11), HKH-10-1 (residues 479-488; SEQ ID NO:13), HKH-10-2 (residues 484-493; SEQ ID NO:14), and HKH-10-3 (residues 489-498; SEQ ID NO:15). The negative control is binding to BSA.
As discussed earlier, gC1q-R binds HK through a site on domain 5 that is located on the light chain of HK. […] This experiment was performed by competitive binding studies in which ELISA plate wells coated with 100 μg/ml HK peptide were incubated with biotinylated gC1q-R (1 μg/ml) in the presence or absence of increasing concentrations of peptide as a solution phase competitor. […] (FIG. 5B)

endothelial cells = conditions: cited from earlier work
HUVECs = conditions: zinc-dependent; read-out: Kd of binding to HUVECs; cited from earlier work

For “EDEVGQEDEAESD (listed as Homo sapiens) [peptide 190-202, gC1q-R 190-202]”, the “capture of HK from diluted plasma on peptide-coated wells” value (HK; plasma 1:10 in TBS, detected by monoclonal antibody to HK) was “HK was bound” and the “ability to support HK binding” value (HK; solid phase ELISA) was “strongly supported binding of HK”.

For “HKHGHGHGKHKNKGKKNGKH (listed as Homo sapiens) [HKH20, HK 479-498, domain 5]”, the “inhibition of gC1q-R binding to coated HK peptide by solution phase peptide” value (recombinant gC1q-R; 50 μg/ml HKH20) is listed as “totally inhibited”, the “binding of gC1q-R to the peptide” value (recombinant gC1q-R; ELISA wells coated with peptide) is listed as “bound strongly” and the “inhibition of the interaction of HK with intact endothelial cells” value (endothelial cells) is listed as “inhibit”.

B1: HK: high molecular weight kininogen, 115 kDa non-enzymatic plasma glycoprotein (protein, UniProt P01042 19-644, looked up)
Kininogen-1: QESQSEEIDCNDKDLFKAVDAALKKYNSQNQSNNQFVLYRITEATKTVGSDTFYSFKYEIKEGDCPVQSGKTWQDCEYKDAAKAATGECTATVGKRSSTKFSVATQTCQITPAEGPVVTAQYDCLGCVHPISTQSPDLEPILRHGIQYFNNNTQHSSLFMLNEVKRAQRQVVAGLNFRITYSIVQTNCSKENFLFLTPDCKSLWNGDTGECTDNAYIDIQLRIASFSQNCDIYPGKDFVQPPTKICVGCPRDIPTNSPELEETLTHTITKLNAENNATFYFKIDNVKKARVQVVAGKKYFIDFVARETTCSKESNEELTESCETKKLGQSLDCNAEVYVVPWEKKIYPTVNCQPLGMISLMKRPPGFSPFRSSRIGEIKEETTVSPPHTSMAPAQDEERDSGKEQGHTRRHDWGHEKQRKHNLGHGHKHERDQGHGHQRGHGLGHGHEQQHGLGHGHKFKLDDDLEHQGGHVLDHGHKHKHGHGHGKHKNKGKKNGKHNGWKTEHLASSSEDSTTPSAQTQEKTEGPTPIPSLAKPGVTVTFSDFQDSDLIATMMPPISPAPIQSDDDWIPDIQIDPNGLSFNPISDFPDTTSPKCPGRPWKSVSEINPTTQMKESYYFDLTDGLS
In the case of B1, the Kd (HUVECs) is given as 40 to 50 nM.
